In paper PMC8328514, “Homo-oligomerization of the human adenosine A2A receptor is driven by the intrinsically disordered C-terminus” (eLife, 2021):
Where a chain is given by its changes, count along the chain named. Numbers in names are those of the source.

Key:
[1] = target: the molecule itself; assay: SEC; Superdex 200 10/300 GL; ligand-active receptor in running buffer 150 mM NaCl, 50 mM sodium phosphate, 10% glycerol, 0.1% DDM, 0.1% CHAPS, 0.02% CHS, pH 8.0; 4°C; HMW oligomer and dimer peak areas (Gaussian fit) relative to the monomer peak
[2] = target: P29274; assay: as above
[3] = target: the molecule itself; assay: SEC; consecutive rounds of SEC: a first round separates monomer from dimer/oligomer, a second round is run on the SEC-separated populations; total oligomer level relative to the monomer
[4] = target: the molecule itself; assay: SDS-PAGE and western blot densitometry of SEC-separated dimer; SEC-separated dimers incubated without or with 5 mM TCEP, then SDS-PAGE and western blot; dimer band area relative to monomer band area

B1: A2AR-P354ΔC (domain or fragment, human, UniProt P29274 1-354, looked up)
chain: MPIMGSSVYITVELAIAVLAILGNVLVCWAVWLNSNLQNVTNYFVVSLAAADIAVGVLAIPFAITISTGFCAACHGCLFIACFVLVLTQSSIFSLLAIAIDRYIAIRIPLRYNGLVTGTRAKGIIAICWVLSFAIGLTPMLGWNNCGQPKEGKNHSQGCGEGQVACLFEDVVPMNYMVYFNFFACVLVPLLLMLGVYLRIFLAARRQLKQMESQPLPGERARSTLQKEVHAAKSLAIIVGLFALCWLPLHIINCFTFFCPDCSHAPLWLMYLAIVLSHTNSVVNPFIYAYRIREFRQTFRKIIRSHVLRQQEPFKAAGTSARVLAAHGSDGEQVSLRLNGHPPGVWANGSAPHP
notes: adenosine A2A receptor, human, C-terminus truncated at site P354
For B1, the “dimer level (relative to monomer)” value [1] was 0.19 arbitrary units and the “total oligomer level (relative to monomer)” value [1] was 0.62 arbitrary units.

B2: A2AR-N359ΔC (protein)
chain: MPIMGSSVYITVELAIAVLAILGNVLVCWAVWLNSNLQNVTNYFVVSLAAADIAVGVLAIPFAITISTGFCAACHGCLFIACFVLVLTQSSIFSLLAIAIDRYIAIRIPLRYNGLVTGTRAKGIIAICWVLSFAIGLTPMLGWNNCGQPKEGKNHSQGCGEGQVACLFEDVVPMNYMVYFNFFACVLVPLLLMLGVYLRIFLAARRQLKQMESQPLPGERARSTLQKEVHAAKSLAIIVGLFALCWLPLHIINCFTFFCPDCSHAPLWLMYLAIVLSHTNSVVNPFIYAYRIREFRQTFRKIIRSHVLRQQEPFKAAGTSARVLAAHGSDGEQVSLRLNGHPPGVWANGSAPHPERRPN
With B2 the “HMW oligomer level (relative to monomer)” value [2] was “ctrl: 0.68”.

B3: A2AR-N359ΔC with the ERR:AAA mutations (domain or fragment, human, UniProt P29274 1-359, looked up)
chain: B2 chain with E355A, R356A, R357A
notes: adenosine A2A receptor, human, C-terminus truncated at site N359, residues 355ERR357 substituted by 355AAA357; also called A2AR-ERR:AAA variant of A2AR-N359ΔC; N359ΔC ERR:AAA
For B3, the “dimer level (relative to monomer)” value [1] was 0.48 arbitrary units, the “total oligomer level (relative to monomer)” value [1] was 0.85 arbitrary units and the “HMW oligomer level (relative to monomer)” value [2] was “ERR:AAA: 0.38”.

B4: A2AR-G344ΔC (domain or fragment, human, UniProt P29274 1-344, looked up)
chain: MPIMGSSVYITVELAIAVLAILGNVLVCWAVWLNSNLQNVTNYFVVSLAAADIAVGVLAIPFAITISTGFCAACHGCLFIACFVLVLTQSSIFSLLAIAIDRYIAIRIPLRYNGLVTGTRAKGIIAICWVLSFAIGLTPMLGWNNCGQPKEGKNHSQGCGEGQVACLFEDVVPMNYMVYFNFFACVLVPLLLMLGVYLRIFLAARRQLKQMESQPLPGERARSTLQKEVHAAKSLAIIVGLFALCWLPLHIINCFTFFCPDCSHAPLWLMYLAIVLSHTNSVVNPFIYAYRIREFRQTFRKIIRSHVLRQQEPFKAAGTSARVLAAHGSDGEQVSLRLNGHPPG
notes: adenosine A2A receptor, human, C-terminus truncated at site G344
B4: binds [1].

B5: A2AR-G349ΔC (domain or fragment, human, UniProt P29274 1-349, looked up)
chain: MPIMGSSVYITVELAIAVLAILGNVLVCWAVWLNSNLQNVTNYFVVSLAAADIAVGVLAIPFAITISTGFCAACHGCLFIACFVLVLTQSSIFSLLAIAIDRYIAIRIPLRYNGLVTGTRAKGIIAICWVLSFAIGLTPMLGWNNCGQPKEGKNHSQGCGEGQVACLFEDVVPMNYMVYFNFFACVLVPLLLMLGVYLRIFLAARRQLKQMESQPLPGERARSTLQKEVHAAKSLAIIVGLFALCWLPLHIINCFTFFCPDCSHAPLWLMYLAIVLSHTNSVVNPFIYAYRIREFRQTFRKIIRSHVLRQQEPFKAAGTSARVLAAHGSDGEQVSLRLNGHPPGVWANG
notes: adenosine A2A receptor, human, C-terminus truncated at site G349
B5: binds [1].

B6: A2AR-Q372ΔC (domain or fragment, human, UniProt P29274 1-372, looked up)
chain: MPIMGSSVYITVELAIAVLAILGNVLVCWAVWLNSNLQNVTNYFVVSLAAADIAVGVLAIPFAITISTGFCAACHGCLFIACFVLVLTQSSIFSLLAIAIDRYIAIRIPLRYNGLVTGTRAKGIIAICWVLSFAIGLTPMLGWNNCGQPKEGKNHSQGCGEGQVACLFEDVVPMNYMVYFNFFACVLVPLLLMLGVYLRIFLAARRQLKQMESQPLPGERARSTLQKEVHAAKSLAIIVGLFALCWLPLHIINCFTFFCPDCSHAPLWLMYLAIVLSHTNSVVNPFIYAYRIREFRQTFRKIIRSHVLRQQEPFKAAGTSARVLAAHGSDGEQVSLRLNGHPPGVWANGSAPHPERRPNGYALGLVSGGSAQ
notes: adenosine A2A receptor, human, C-terminus truncated at site Q372 (lacks residue C394)
With B6 the “total oligomer level (relative to monomer), SEC-separated monomer after redistribution” value [3] was 1.4 arbitrary units, the “total oligomer level (relative to monomer), initial sample” value [3] was 1.49 arbitrary units and the “dimer level (relative to monomer) with 5 mM TCEP” value [4] was 0.22 arbitrary units. The “dimer level (relative to monomer) without TCEP” value [4] was 0.68 arbitrary units.

B7: A2AR-P395ΔC (domain or fragment, human, UniProt P29274 1-395, looked up)
chain: MPIMGSSVYITVELAIAVLAILGNVLVCWAVWLNSNLQNVTNYFVVSLAAADIAVGVLAIPFAITISTGFCAACHGCLFIACFVLVLTQSSIFSLLAIAIDRYIAIRIPLRYNGLVTGTRAKGIIAICWVLSFAIGLTPMLGWNNCGQPKEGKNHSQGCGEGQVACLFEDVVPMNYMVYFNFFACVLVPLLLMLGVYLRIFLAARRQLKQMESQPLPGERARSTLQKEVHAAKSLAIIVGLFALCWLPLHIINCFTFFCPDCSHAPLWLMYLAIVLSHTNSVVNPFIYAYRIREFRQTFRKIIRSHVLRQQEPFKAAGTSARVLAAHGSDGEQVSLRLNGHPPGVWANGSAPHPERRPNGYALGLVSGGSAQESQGNTGLPDVELLSHELKGVCP
notes: adenosine A2A receptor, human, C-terminus truncated at site P395
B7: binds [1].

B8: human adenosine A2A receptor, full-length wild type (receptor, UniProt P29274 1-412, looked up)
chain: MPIMGSSVYITVELAIAVLAILGNVLVCWAVWLNSNLQNVTNYFVVSLAAADIAVGVLAIPFAITISTGFCAACHGCLFIACFVLVLTQSSIFSLLAIAIDRYIAIRIPLRYNGLVTGTRAKGIIAICWVLSFAIGLTPMLGWNNCGQPKEGKNHSQGCGEGQVACLFEDVVPMNYMVYFNFFACVLVPLLLMLGVYLRIFLAARRQLKQMESQPLPGERARSTLQKEVHAAKSLAIIVGLFALCWLPLHIINCFTFFCPDCSHAPLWLMYLAIVLSHTNSVVNPFIYAYRIREFRQTFRKIIRSHVLRQQEPFKAAGTSARVLAAHGSDGEQVSLRLNGHPPGVWANGSAPHPERRPNGYALGLVSGGSAQESQGNTGLPDVELLSHELKGVCPEPPGLDDPLAQDGAGVS
notes: adenosine A2A receptor, human, full-length wild type; also called A2AR-WT; A2AR-FL-WT
B8 was tested, and the “total oligomer level (relative to monomer), SEC-separated monomer after redistribution” value [3] was 1.6 arbitrary units, the “total oligomer level (relative to monomer), initial sample” value [3] was 2.87 arbitrary units and the “dimer level (relative to monomer) with 5 mM TCEP” value [4] was 0.51 arbitrary units. For the same protein, the “dimer level (relative to monomer) without TCEP” value [4] was 1.14 arbitrary units, the “total oligomer level (relative to monomer)” value [1] was 1.37 arbitrary units and the “HMW oligomer + dimer level (relative to monomer)” value [2] was “WT: 1.34”. For the same protein, the “HMW oligomer level (relative to monomer)” value [2] was “ctrl: 0.88”.

B9: A2AR-C394X variant with leucine at 394 (receptor, human, UniProt P29274 1-412, looked up)
chain: B8 chain with C394L
notes: also called A2AR-C394X (leucine)
B9: binds [1].

B10: A2AR-C394S (receptor, human, UniProt P29274 1-412, looked up)
chain: B8 chain with C394S
notes: adenosine A2A receptor, human, with C394S; also called A2AR-C394X variant
B10: binds [1].

B11: A2AR-C394X variant with valine at 394 (receptor, human, UniProt P29274 1-412, looked up)
chain: B8 chain with C394V
notes: also called A2AR-C394X (valine)
B11: binds [1].

B12: A2AR-FL-ERR:AAA (receptor, human, UniProt P29274 1-412, looked up)
chain: B8 chain with E355A, R356A, R357A
notes: adenosine A2A receptor, human, full length, residues 355ERR357 substituted by 355AAA357; also called A2AR-ERR:AAA variant of A2AR-FL-WT
With B12 the “dimer level (relative to monomer)” value [1] was 0.29 arbitrary units, the “total oligomer level (relative to monomer)” value [1] was 0.94 arbitrary units and the “HMW oligomer level (relative to monomer)” value [2] was “ERR:AAA: 0.66”.

B13: A2AR-C394X variant with methionine at 394 (receptor, human, UniProt P29274 1-412, looked up)
chain: B8 chain with C394M
notes: also called A2AR-C394X (methionine)
B13: binds [1].

B14: A2AR-C394X variant with alanine at 394 (receptor, human, UniProt P29274 1-412, looked up)
chain: B8 chain with C394A
notes: also called A2AR-C394X (alanine)
B14: binds [1].
